# Assay results published in paper PMC3774380.
# Biological target: L-glucagon (natural) (human) (UniProt P01275)
# Experiment: competitive pull-down
# Conditions: all L-nucleotides, Selection buffer: 20 mM Tris pH 7.4, 150 mM NaCl, 5 mM KCl, 1 mM MgCl2, 1 mM CaCl2, 0.1% Tween 20, 0.1% CHAPS, 100 ug/ml HSA, 10 ug/ml yeast RNA, 37 C …
# Sequence of L-glucagon (natural) (human) (P01275 53-81): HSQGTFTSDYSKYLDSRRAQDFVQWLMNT
sequence,measurement,setting,value
GCAGTGGGGAAATGGGAGGGCTAGGTGGAAGGAATCTGAGCTACTGC [L-257-E1-001-6xR],Kd,"ribonucleotides at positions 9, 15, 18, 19, 29, 30, rest deoxy",6.4 nM
GCAGTGGGGAAATGGGAGGGCTAGGTGGAAGGAATCTGAGCTACTGC [L-257-E1-001-R15/29/30],Kd,"ribonucleotides at positions 15, 29, 30, rest deoxy",20 nM
GCGGGAAATGGGAGGGCTAGGTGGAAGGAATCTGAGCGC [L-257-E1-030-6xR],Kd,"ribonucleotides at positions 5, 11, 14, 15, 25, 26, rest deoxy",6.3 nM
